One experiment has as its target T1, Suc-AAP-Ala-pNA.
T1 sequence (peptide, N-terminal Suc; C-terminal pNA): AAPA

A further experiment deals with T2, Suc-AAP-Leu-pNA.
T2 sequence (peptide, N-terminal Suc; C-terminal pNA): AAPL

A further experiment addresses T3, Z-GPR-pNA.
T3 sequence (peptide, N-terminal Z; C-terminal pNA): GPR

The target of experiment [1] is bovine calf skin collagen (type I collagen) (bovine) (UniProt P02453).

Where a chain is given by its changes, count along the chain named. Names may count otherwise. Bounds are passed on as bounds.

B1: crab collagenase D226G/G189D (enzyme)
chain: IVGGVEAVPNSWPHQAALFIDDMYFCGGSLISPEWILTAAHCMDGAGFVDVVLGAHNIREDEATQVTIQSTDFTVHENYNSFVISNDIAVIRLPSPVTLTAAIATVGLPSTDVGVGTVVTPTGWGLPSDSALGISDVLRQVDVPIMSNADCDAVYGIVTDGNICIDSTGGKDTCNGDSGGPLNYNGLTYGITSFGAAAGCEAGYPGAFTRVTYFLDWIQTQTGITP
For B1, the kcat /Km came out at 867 M⁻¹ s⁻¹ with Suc-AAP-Ala-pNA; 917000 M⁻¹ s⁻¹ with Suc-AAP-Arg-pNA; 23300 M⁻¹ s⁻¹ with Suc-AAP-Met-pNA; 23300 M⁻¹ s⁻¹ with Suc-AAP-Lys-pNA; 4800 M⁻¹ s⁻¹ with Suc-AAP-Orn-pNA; 51700 M⁻¹ s⁻¹ in the experiment with Suc-AAP-Leu-pNA. The figures for the kcat /Km with Suc-AAP-Phe-pNA, with Suc-AAP-Gln-pNA and in the experiment with Z-GPR-pNA were 23300 M⁻¹ s⁻¹, 5500 M⁻¹ s⁻¹ and 14500 M⁻¹ s⁻¹, respectively.

B2: crab collagenase D226G (enzyme)
chain: B1 chain with D172G
On to B2, for which the kcat /Km with Suc-AAP-Ala-pNA stood at 317 M⁻¹ s⁻¹; in the experiment with Suc-AAP-Arg-pNA, 48300 M⁻¹ s⁻¹; in the experiment with Suc-AAP-Met-pNA, 48300 M⁻¹ s⁻¹; in the experiment with Suc-AAP-Lys-pNA, 400 M⁻¹ s⁻¹; with Suc-AAP-Orn-pNA it was 383 M⁻¹ s⁻¹; with Suc-AAP-Leu-pNA, 80000 M⁻¹ s⁻¹. The kcat /Km stood at 115000 M⁻¹ s⁻¹ with Suc-AAP-Phe-pNA, 5500 M⁻¹ s⁻¹ with Suc-AAP-Gln-pNA and 367 M⁻¹ s⁻¹ with Z-GPR-pNA.

B3: recombinant crab serine collagenase 1 (mature, wild type) (enzyme)
chain: B1 chain with D172G, G206D
For the molecule B3, the kcat /Km amounted to 2170 M⁻¹ s⁻¹ with Suc-AAP-Ala-pNA; 1.33e+06 M⁻¹ s⁻¹ in the experiment with Suc-AAP-Arg-pNA; 70000 M⁻¹ s⁻¹ with Suc-AAP-Met-pNA; 60000 M⁻¹ s⁻¹ in the experiment with Suc-AAP-Lys-pNA; 7830 M⁻¹ s⁻¹ in the experiment with Suc-AAP-Orn-pNA; 152000 M⁻¹ s⁻¹ in the experiment with Suc-AAP-Leu-pNA. The kcat /Km is 158000 M⁻¹ s⁻¹ with Suc-AAP-Phe-pNA, 18300 M⁻¹ s⁻¹ with Suc-AAP-Gln-pNA and 7170 M⁻¹ s⁻¹ in the experiment with Z-GPR-pNA. The molecule further registered a collagen cleavage (3/4, 1/4 fragmentation pattern) in experiment [1] of over 50%.

These data come from patent US5747322.
